B1: POU domain, class 4, transcription factor 2, residues 256 to 327; numbered along this chain, Q12837 (parent)
chain: RDLEAFAERFKQRRIKLGVTQADVGSALANLKIPGVGSLSQSTICRFESLTLSHNNMIALKPILQAWLEEAE

± gives the uncertainty stated by the source.

This series covers variants of B1. The series is described as follows: abundance fitness (aPCA) (normalised: wild type 0, dead -1); higher = more abundant; growth selection in yeast, the domain comes from the species named. The following applies: Homo sapiens.
Regarding RDLEAFAERFKQRRIKLGVTQADVGSALAMLKIPGVGSLSQSTICRFESLTLSHNNMIALKPILQAWLEEAE, the abundance fitness is -0.5 ± 0.11.
The value for RDLEAFAERFKQRRIKLGVTQADVGSALAWLKIPGVGSLSQSTICRFESLTLSHNNMIALKPILQAWLEEAE was -0.315 ± 0.08; that for RDLEAFAERFKQRRIKLGVTQADVGSALANLKIPGVGSSSQSTICRFESLTLSHNNMIALKPILQAWLEEAE was -0.304 ± 0.062; that for RDLEAFAERFKQRRIKLGVTQADVGSALANLKIPGVGSNSQSTICRFESLTLSHNNMIALKPILQAWLEEAE was -0.615 ± 0.35.
In the case of RDLEAFAERFKQRRIKLGVTQADVGSALANLKIPGVGSLSQSTICRFESLTLSHNNMIALKPILQAWLEEQE, the abundance fitness was -0.188 ± 0.16.
As for RDLEAFAERFKQRRIKLGVTQADVGSALANLKIPGVGSLSQSTICRFESLTLSHNNMIALKPILQAWLEEIE, the abundance fitness was -0.11 ± 0.19.
On to RDLEAFAERFKQRRIKLGVTQADVGSALANLKIPGVGSLSQTTICRFESLTLSHNNMIALKPILQAWLEEAE, for which the abundance fitness was -0.054 ± 0.081.
Take RDLEAFAERFKQRRIKLGVTQADVGSALANLKIPGVGSLSQETICRFESLTLSHNNMIALKPILQAWLEEAE: the abundance fitness was 0.107 ± 0.13.
Take RDLEAFAERFKQRRIKLGVTQADVGSALANLKIPGVGSLSQSTICRFESLTLMHNNMIALKPILQAWLEEAE: the abundance fitness is -0.371 ± 0.23.
The result for RDLEAFAERFKQRRIKLGVTQADVGSALANLKIPGVGSLSQSTICRFESLTLCHNNMIALKPILQAWLEEAE reads -0.514 ± 0.18; that for RDLEAFAERFKQRRIKLGVTQADVGSALANLKIPGVGSLSQSTICRFESLTLDHNNMIALKPILQAWLEEAE, 0.043 ± 0.1.
In the case of RDLEAFAERFKQRRIKLGVTQADEGSALANLKIPGVGSLSQSTICRFESLTLSHNNMIALKPILQAWLEEAE, the abundance fitness was -0.88 ± 0.39.
The value for RDLEAFAERFKQRRIKLGVTFADVGSALANLKIPGVGSLSQSTICRFESLTLSHNNMIALKPILQAWLEEAE was -0.426 ± 0.2; that for RDLEAFAERFKQRRIKLGVTQADVGSALANLKIPGVGSLSQSTICRFESLTLSHNNMIALPPILQAWLEEAE was -0.802 ± 0.17; that for RDLEAFAERFKQRRIKLGVTQADVGSALYNLKIPGVGSLSQSTICRFESLTLSHNNMIALKPILQAWLEEAE was -0.165 ± 0.14.
Regarding RDLEAFAERFKQRRIKLGVTQADVGSALANLKIPGVGSLSQSTICRFESLTLSHNDMIALKPILQAWLEEAE, the abundance fitness stood at 0.281 ± 0.31.
As for RDLEAFAERFKQRRIKLGVTQADVGSALANLKIPGVGSLSQSTICRFESLTLSHNRMIALKPILQAWLEEAE, the abundance fitness was -0.134 ± 0.084.
As to RDLEAFAERVKQRRIKLGVTQADVGSALANLKIPGVGSLSQSTICRFESLTLSHNNMIALKPILQAWLEEAE, the abundance fitness is -0.59 ± 0.16.
Consider RDLEAFAERFKQRRIKLGVTQADVGSALANLKIPGVGSLSQSTIWRFESLTLSHNNMIALKPILQAWLEEAE, for which the abundance fitness is -0.431 ± 0.11.
As to RDLEAFAERFKQRRIKLGVTQADVGSALANLKIPGVGSLSQSTIKRFESLTLSHNNMIALKPILQAWLEEAE, the abundance fitness was -0.098 ± 0.14.
RDLEAFAERFKQRRIKLGVTQKDVGSALANLKIPGVGSLSQSTICRFESLTLSHNNMIALKPILQAWLEEAE: the abundance fitness was -0.078 ± 0.12.
With RDLEAFAERFKQRRIKLGVTQADVGSALANLKIPGVGSLSQSTICRFESCTLSHNNMIALKPILQAWLEEAE, the abundance fitness is -0.029 ± 0.069.
The value for RDLEAFAERFKQRRIKLGVTQADVGSALANLKIPGVGSLSQSTICRFESYTLSHNNMIALKPILQAWLEEAE was -0.478 ± 0.37.
For RDLEAFAERFKQRRIKLGGTQADVGSALANLKIPGVGSLSQSTICRFESLTLSHNNMIALKPILQAWLEEAE, the abundance fitness was -0.927 ± 0.18.
Take RDLEAFAERFKQRRIKLGVTQADVGSALANLKIPGVASLSQSTICRFESLTLSHNNMIALKPILQAWLEEAE: the abundance fitness was -0.098 ± 0.066.
For the variant RDLEAFAERFKQRRIKLGVTQADVGSALANLKIPGVGSLSQSTICRPESLTLSHNNMIALKPILQAWLEEAE, the abundance fitness was -0.897 ± 0.19.
With RDLEAFAERFKQRRIKLGVTQADVGSALANLKIPGVGSLSQSTICRFESLTLSHNNMICLKPILQAWLEEAE, the abundance fitness was -0.431 ± 0.12.
As to RDLEAFAERFKQRRIKLGVTQADVGSALANLKIPGVGSLSQSTICRFESLTLSHNNMCALKPILQAWLEEAE, the abundance fitness was -0.374 ± 0.21.
For RDLEAFAERFKQRRICLGVTQADVGSALANLKIPGVGSLSQSTICRFESLTLSHNNMIALKPILQAWLEEAE, the abundance fitness is -0.137 ± 0.1.
The value for RDLEAFAERFKQRRIKLGVTQADVGSALANLKIPGVGSLSQSTICRFESLELSHNNMIALKPILQAWLEEAE was -0.059 ± 0.17; that for RDLEAFAERFKQRRIKLGVTQADVGSALANLKIPGVGSLSQSTICRFESLLLSHNNMIALKPILQAWLEEAE was -0.256 ± 0.064.
On to RDLEAFAERFKQRRIKLGVTQADVESALANLKIPGVGSLSQSTICRFESLTLSHNNMIALKPILQAWLEEAE, for which the abundance fitness worked out at 0.127 ± 0.09.
In the case of RDLEAFAERFKQRRIKLGVTQADVGSALANLKIPWVGSLSQSTICRFESLTLSHNNMIALKPILQAWLEEAE, the abundance fitness is -0.525 ± 0.23.
The value for RDLEAFAERFKQRRIKLGVTQADVGSALANLKIPGVGSLSQSTICRFESLTLSHNNMIALKPILQAWLEDAE was -0.212 ± 0.15.
RDLEAFAERFKQRRIKLGVTQADVGSALANLKIPGVGSLSLSTICRFESLTLSHNNMIALKPILQAWLEEAE: the abundance fitness is -0.289 ± 0.062.
For RDLEAFAERFKQRRIKLGVTQADVGSALANLKIPGVGSLSKSTICRFESLTLSHNNMIALKPILQAWLEEAE, the abundance fitness came to 0.054 ± 0.15.
Consider RDLEAFAERFKQRRIKLGVTQADVGSALANLKIPGVGSLSESTICRFESLTLSHNNMIALKPILQAWLEEAE, for which the abundance fitness stood at 0.111 ± 0.076.
The result for RDLEAFAERFKQRRIKLGVTQADVGSALANLKIPGVGSLSPSTICRFESLTLSHNNMIALKPILQAWLEEAE reads -0.046 ± 0.063.

The values above are taken from the Human Domainome abundance scans (Beltran et al. 2025).
